Source: patent US20240368275A1 (ELPIS BIOPHARMACEUTICALS, published 2024)
Substitutions are numbered along the chain they refer to. Names may count otherwise.

T1: human Nectin4-HIS tagged recombinant protein (human, UniProt Q96NY8 32-349)
T1 construct: also called hNectin4-HIS; Nectin4 HIS tagged protein; not shown: HIS tag
T1 sequence (looked up): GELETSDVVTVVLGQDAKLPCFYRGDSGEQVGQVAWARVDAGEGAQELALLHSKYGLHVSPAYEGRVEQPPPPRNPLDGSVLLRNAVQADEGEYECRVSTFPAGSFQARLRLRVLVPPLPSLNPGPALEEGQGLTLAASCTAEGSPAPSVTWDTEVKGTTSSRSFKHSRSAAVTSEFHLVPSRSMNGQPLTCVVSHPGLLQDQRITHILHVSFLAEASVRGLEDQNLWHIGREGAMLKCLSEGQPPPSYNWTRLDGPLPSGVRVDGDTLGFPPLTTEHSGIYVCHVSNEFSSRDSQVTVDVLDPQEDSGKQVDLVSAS

T2: full-length human Nectin4 with C-terminal flag and Myc tags on CHO cells (human, UniProt Q96NY8 32-510)
T2 construct: whole, on cells; also called Nectin4/CHO; CHO/Nectin4; not shown: C-terminal flag and Myc tags of pCMV6-Entry vector
T2 sequence (looked up): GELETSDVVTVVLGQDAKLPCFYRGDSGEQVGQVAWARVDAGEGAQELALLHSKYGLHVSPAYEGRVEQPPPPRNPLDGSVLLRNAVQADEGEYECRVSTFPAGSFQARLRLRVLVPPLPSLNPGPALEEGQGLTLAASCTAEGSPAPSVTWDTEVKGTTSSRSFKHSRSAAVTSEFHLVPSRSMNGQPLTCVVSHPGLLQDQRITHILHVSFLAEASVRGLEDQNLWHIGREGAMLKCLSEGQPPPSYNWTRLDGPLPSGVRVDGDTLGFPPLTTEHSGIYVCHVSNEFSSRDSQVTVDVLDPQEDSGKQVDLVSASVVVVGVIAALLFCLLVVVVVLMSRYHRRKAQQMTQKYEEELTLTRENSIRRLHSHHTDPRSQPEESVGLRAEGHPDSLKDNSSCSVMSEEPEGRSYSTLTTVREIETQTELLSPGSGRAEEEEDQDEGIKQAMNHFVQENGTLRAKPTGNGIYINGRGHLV

B1: EP369/371/289 anti-Nectin4/CD3/IL2 protein complex (bispecific antibody)
chain: not shown
heavy: not shown
light: QAVVTQPPSVSVAPGKTATITCGGNNIGSKGVHWYQQKPGQAPVLVIYYDTDRPSGIPERLSGSNSGNTATLTISRVEAGDEADYYCQVWDSSSDHPVFGGGTKLTVLGQPKANPTVTLFPPSSEELQANKATLVCLISDFYPGAVTVAWKADGSPVKAGVETTKPSKQSNNKYAASSYLSLTPEQWKSHRSYSCQVTHEGSTVEKTVAPTECS
notes: Anti-CD3 sp34 scFv-Fc knob (EP369), B09 heavy chain hole with wild-type IL2 at the C-terminus (EP371), light chain EP289; also called EP369/EP371/EP289
B2: EP369/379/289 anti-Nectin4/CD3/IL2 protein complex (bispecific antibody)
chain: not shown
heavy: EVQLVQSGAEVKKPGASVKVSCKASGYTFTGYYMHWVRQAPGQGLEWMGRINPNSGGTNYAQKFQGRVTMTRDTSISTAYMELSGLRSDDTAVYFCARVTYNIGWYIDYWGQGTLVTVSSASTKGPSVFPLAPSSKSTSGGTAALGCLVKDYFPEPVTVSWNSGALTSGVHTFPAVLQSSGLYSLSSVVTVPSSSLGTQTYICNVNHKPSNTKVDKKVEPKSCDKTHTCPPCPAPEAAGGPSVFLFPPKPKDTLMISRTPEVTCVVVDVSHEDPEVKFNWYVDGVEVHNAKTKPREEQYNSTYRVVSVLTVLHQDWLNGKEYKCKVSNKALGAPIEKTISKAKGQPREPQVCTLPPSRDELTKNQVSLSCAVKGFYPSDIAVEWESNGQPENNYKTTPPVLDSDGSFKLVSKLTVDKSRWQQGNVFSCSVMHEALHNHYTQKSLSLSPGKGGGGSGGGGSGGGGSGGGGSAPASSSTKKTQLQLEHLLLDLQMILNGINNYKNPLLTDMLTRKFYMPKKATELKHLQCLEEELKPLEEVLNLAQSKNFHLRPRDLISNINVIVLELKGSETTFMCEYADETATIVEFLNRWITFSQSIISTLT
light: B1 light
notes: Anti-CD3 sp34 scFv-Fc knob (EP369), B09 heavy chain hole with K35L R38D F42R IL2 at the C-terminus (EP379), light chain EP289; also called EP369/EP379/EP289
B3: 2020EP47-F02 IgG (EP544/EP545) (antibody, V domains shown)
VH: QVQLQQWGAGLLKPSETLSLTCAVYGGSFSGYYWSWIRQPPGKGLEWIGEINHSGSTNYNPSLKSRVTISVDTSKNQFSLKLSSVTAADTAVYYCARGWYLGFDYWGQGTLVTVSS
VL: QSVLTQPRSVSGSPGQSVTISCTGTSRDVGGYDYVSWYQQYPGKAPKLMISGVSERPSGVPDRFTGSRSANTASLTISGLQTDDEANYYCCSYAGSFTWVFGDGTKLTVLG
notes: Human IgG1 with lambda light chain; entries without signal peptide used
B4: EP499/EP378/EP289 anti-Nectin4/CD3 bispecific antibody (bispecific antibody)
heavy 1: EVQLVQSGAEVKKPGASVKVSCKASGYTFTGYYMHWVRQAPGQGLEWMGRINPNSGGTNYAQKFQGRVTMTRDTSISTAYMELSGLRSDDTAVYFCARVTYNIGWYIDYWGQGTLVTVSSASTKGPSVFPLAPSSKSTSGGTAALGCLVKDYFPEPVTVSWNSGALTSGVHTFPAVLQSSGLYSLSSVVTVPSSSLGTQTYICNVNHKPSNTKVDKKVEPKSCDGGGGSGGGGSEVQLVESGGGLVQPGGSLRLSCAASGFTFNTYAMNWVRQAPGKGLEWVARIRSKYNNYATYYAASVKGRFTISRDDSKNSLFLQMNSLKTEDTAVYYCVRHGNFGNSYVSWFAYWGQGTLVTVSSGGGGSGGGGSGGGGSGGGGSQTVVTQEPSLTVSPGGTVTLTCRSSTGAVTTSNYANWVQEKPDHLFTGLIGGTNKRAPGVPARFSGSLLGGKAALTLSGVQPEDEAIYFCALWYSNLWVFGSGTKVTVLEPKSCDKTHTCPPCPAPEAAGGPSVFLFPPKPKDTLMISRTPEVTCVVVDVSHEDPEVKFNWYVDGVEVHNAKTKPREEQYNSTYRVVSVLTVLHQDWLNGKEYKCKVSNKALGAPIEKTISKAKGQPREPQVCTLPPSRDELTKNQVSLSCAVKGFYPSDIAVEWESNGQPENNYKTTPPVLDSDGSFKLVSKLTVDKSRWQQGNVFSCSVMHEALHNHYTQKSLSLSPGK
heavy 2: not shown
light: B1 light
notes: Bivalent for Nectin4; EP499 carries a humanized SP34 scFv between CH1 and hinge, hole; also called EP499/378/289
B5: EP500/EP378/EP289 anti-Nectin4/CD3 bispecific antibody (bispecific antibody)
heavy 1: B4 heavy 1 with T381A, R402A, I466E, F468Y, S481G, V485L
heavy 2: not shown
light: B1 light
notes: Bivalent for Nectin4; EP500 carries a humanized SP34 scFv between CH1 and hinge, hole; template of EP695, EP696 and EP697; also called EP500/378/289
B6: EP697/EP378/EP289 anti-Nectin4/CD3 bispecific antibody (bispecific antibody)
heavy 1: B4 heavy 1 with Y289A, N291A, Y342A, T381A, R402A, I466E, F468Y, S481G, V485L
heavy 2: not shown
light: B1 light
notes: EP697: two residue mutations within HCDR2 and a single point mutation within HCDR3 of the anti-CD3 scFv of EP500; also called EP697/378/289

Assays:
CD3 on Jurkat cells [1] = target: T3, CD3 on Jurkat cells (UniProt P07766 23-207, limits assumed); assay: cell-based or functional assay
T3 sequence (P07766 23-207 limits assumed): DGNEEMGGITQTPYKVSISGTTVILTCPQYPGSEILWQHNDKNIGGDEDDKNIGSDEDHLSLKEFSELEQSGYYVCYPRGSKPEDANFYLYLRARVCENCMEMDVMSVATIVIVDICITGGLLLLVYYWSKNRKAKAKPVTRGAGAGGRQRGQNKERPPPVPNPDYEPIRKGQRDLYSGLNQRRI

CD3 on Jurkat cells [2] = target: T3, CD3 on Jurkat cells; assay: flow cytometry on Jurkat cells
Procedure: Jurkat cells were plated at 100,000 cells/well in a 96-well plate with 50 μL of full media. Anti-Nectin4/CD3 antibodies were 3-fold serial titrated from 20 nM. 50 μL was added to the cells and incubated for 1 hours at room temperature with shaking. Samples were washed one time with flow buffer. […] Samples were washed once with flow buffer. Samples were stained with 100 uL Zombie Fixable Viability Dyes at 1:800 dilution per well and incubated in dark at room temperature for 30 mins. Samples were spun down at 1300 rpm for 5 minutes and washed once with 200 uL flow buffer. Reconstituted samples in 200 uL of flow buffer and read on Attune NxT cytometer. EC50 values for CD3 binding were calculated using Prism 8.1 software.
Similar methods of above mentioned were used to measure the binding activities of anti-Nectin4/CD3/IL-2 complexes to CHO/Nectin4 and Jurkat cells, respectively.

[3] = target: T1, human Nectin4-HIS tagged recombinant …; assay: ELISA, coated human Nectin4-HIS, complex titrated, anti-hFc HRP
Procedure: ELISA was performed to determine the EC₅₀ of anti-Nectin4/CD3/IL2 protein complexes. Briefly, 384 well plate was immobilized with human Nectin4-HIS tagged recombinant protein at final concentration of 2 ug/mL in 1×PBS in total volume of 25 uL per well. The plate was incubated overnight at 4° C. followed by blocking with 80 uL of superblock per well for 1 hour. […] The Nectin4 binding was detected by adding 25 uL of anti-hFc HRP diluted at 1:10000 in 1×PBST. In between each step, the plate was washed 3 times with […] in a plate washer. The plate was then developed with 20 ul of TMB substrate for 5 mins and stopped by adding 20 ul of 2N sulfuric acid. The plate was read at OD450 nm Biotek plate reader and then plotted in Prism 8.1 software. Similar SPR methods were applied to measure the binding of the protein complexes to Nectin4, CD3E and IL2 receptors.

[4] = target: T1, human Nectin4-HIS tagged recombinant …; assay: ELISA, coated human Nectin4-HIS, IgG titrated, anti-hFc HRP
Procedure: An ELISA assay was developed to determine the EC₅₀ of exemplary anti-Nectin4 IgG antibodies. Briefly, 384 well plate was immobilized with human Nectin4-HIS tagged recombinant protein at final concentration of 2 ug/mL in 1×PBS in total volume of 25 uL per well. The plate was incubated overnight at 4° C. followed by blocking with 80 uL of superblock per well for 1 hour. Titration of purified anti-Nectin4 IgG starting at 200 nM 2-fold serial dilution, 25 uL was added to human Nectin4 immobilized wells and incubated for 1 hour with shaking. The Nectin4 binding was detected by adding 25 uL of anti-hFc HRP diluted at 1:5000 in 1×PBST. In between each step, the plate was washed 3 times with 1×PBST in a plate washer. The plate was then developed with 20 ul of TMB substrate for 5 mins and stopped by adding 20 ul of 2N sulfuric acid. The plate was read at OD450 nm Biotek plate reader and then plotted in Prism 8.1 software.

[5] = target: T2, full-length human Nectin4 with …; assay: flow cytometry, IgG on Nectin4/CHO cells, anti-hFc Alexa fluor 647
Procedure: 200 nM of purified anti-Nectin4 IgG antibodies were diluted in full medium and incubated with Nectin4/CHO and CHO cells in 96 wells plate on ice for 1 hour. Cells were spun down at 1200 rpm for 5 minutes at 4° C. to remove primary antibodies. Cells were then washed once with 200 uL of full medium per well. Samples were detected with anti-hFc Alexa fluor 647 by adding 100 uL of diluted secondary antibody and incubated at 4° C. for 30 minutes in the dark. Samples were spun down at 1200 rpm for 5 minutes at 4° C. and washed twice with 200 uL of 1×PBS per well. Reconstituted samples in 200 uL of 1×PBS and read on Attune NxT cytometer. Analysis was done by Attune NxT software plotting the overlay histogram of […] proteins binding onto both negative and target cell lines.

[6] = target: T2, full-length human Nectin4 with …; assay: flow cytometry on CHO/Nectin4 cells
Procedure: Nectin4/CHO Nectin4 cells were plated at 100,000 cells/well in a 96-well plate in 50 μL of full media. Cells were rested 1 hour at 37° C. Anti-Nectin4/CD3 was 3-fold serial titrated from 50 nM. 50 μL was added to the cells and incubated for 1 hours with shaking. Samples were washed one time with flow buffer. […] Samples were washed once with flow buffer. Samples were stained with 100 uL Zombie Fixable Viability Dyes (1:800 dilution) per well and incubated in dark at room temperature for 30 mins. Samples were spun down at 1200 rpm for 5 minutes and washed once with 200 uL flow buffer. Reconstituted samples in 200 uL of flow buffer and read on Attune NxT cytometer. EC₅₀ values for Nectin4 Binding were determined using Prism software.

[7] = target: T1, human Nectin4-HIS tagged recombinant …; assay: ELISA, coated Nectin4 HIS tagged protein, bispecific titrated, anti-Human HRP
Procedure: An ELISA assay was developed to determine the EC₅₀ of anti-Nectin4/CD3 bispecific antibodies. Briefly, 384 well plate was immobilized with human CD3E or Nectin4 HIS tagged protein at final concentration of 2 ug/mL in 1×PBS in total volume of 25 uL per well. The plate was incubated overnight at 4° C. followed by blocking with 80 uL of superblock per well for 1 hour. Purified anti-Nectin4/CD3 was 3-fold serial titrated from 100 nM. 25 uL was added to human Nectin4/CD3 immobilized wells and incubated for 1 hour with shaking. The CD3E or Nectin4 binding was detected by adding 25 uL of anti-Human HRP diluted at 1:10000 in 1×PBST. In between each step, the plate was washed 3 times with […] in a plate washer. The plate was then developed with 20 ul of TMB substrate for 5 mins and stopped by adding 20 ul of 2N sulfuric acid. The plate was read at OD450 nm Biotek plate reader and then plotted in Prism 8.1 software to calculate EC50.

Row | Binder | Jurkat Cell Activation Activity, NFAT reporter EC50 (CD3 on Jurkat cells [1]) | EC50 (CD3 on Jurkat cells [2]) | EC50 [3] | EC50 [6] | EC50 [7] | also measured
1 | B1 | 0.009 nM | 1.65 nM | 0.016 nM | – | – | –
2 | B2 | 0.044 nM | 1.04 nM | 0.042 nM | – | – | –
3 | B3 | – | – | – | – | – | EC50 [4]: 0.119 nM; EC50 [5]: 0.125 nM
4 | B4 | – | – | – | 0.235 nM | 0.025 nM | –
5 | B5 | – | – | – | 0.234 nM | 0.022 nM | –
6 | B6 | – | – | – | – | – | binding result (CD3 on Jurkat cells [2]): no binding
